3 substances from PMC6497670 can be followed below.

A word on the stoichiometry N: it is a count of units in the complex or per binding partner.

What all share (test): PELDOR/DEER EPR; MTSSL-labelled protein reconstituted in soybean phosphatidylcholine liposomes (1:20 protein/lipid), 50 mM KPi pH 8.0, spin concentration 80-130 µM, 20% deuterated glycerol, Q-band, 50 K; monomer to dimer
Test [1] deals with SLC26Dg L385R1 (single-cysteine mutant L385C labelled with MTSSL) (Deinococcus geothermalis).
For test [2], the target named is SLC26Dg K353R1 (single-cysteine mutant K353C labelled with MTSSL) (Deinococcus geothermalis).
The target of test [3] is SLC26Dg V367R1 (single-cysteine mutant V367C labelled with MTSSL) (Deinococcus geothermalis).

As for “SLC26Dg L385R1 (single-cysteine mutant L385C labelled with MTSSL) (natural protein)”, the stoichiometry N in test [1] was found to be 2. “SLC26Dg K353R1 (single-cysteine mutant K353C labelled with MTSSL) (natural protein)” registered a stoichiometry N in test [2] of 2. “SLC26Dg V367R1 (single-cysteine mutant V367C labelled with MTSSL) (natural protein)”: the stoichiometry N in test [3] is 2.
